{
  "source": "paper PMC12689640",
  "key": {"[1]": {"molecular_target": "μOR N86^1.50A-RLuc8 (mouse) (UniProt P42866)"}, "[2]": {"molecular_target": "μOR Y326^7.43F-RLuc8 (mouse) (UniProt P42866)"}, "[3]": {"molecular_target": "μOR Q124^2.60L-RLuc8 (mouse) (UniProt P42866)"}, "[4]": {"molecular_target": "μOR W293^6.48A-RLuc8 (mouse) (UniProt P42866)"}, "[5]": {"molecular_target": "μOR S329^7.46A-RLuc8 (mouse) (UniProt P42866)"}},
  "data": [
    {"substance": "Gi heterotrimer of the dissociation assay (Gαi1-RLuc8, Gβ1, Venus-Gγ2) (from UniProt P63096 1-354; P62873 1-340; P59768 1-71) (complex)", "values": [
      {"measurement": "efficacy of Gi activation against wild type (Gi dissociation BRET)", "setting": "[1]", "value": "40 to 60", "unit": "%"},
      {"measurement": "decrease of Gi dissociation efficacy against wild type (BRET)", "setting": "[2]", "value": 30, "unit": "%"},
      {"measurement": "efficacy of Gi dissociation against wild type (BRET), stimulated with DAMGO", "setting": "[3]", "value": 60, "unit": "%"},
      {"measurement": "efficacy of Gi activation against wild type (Gi dissociation BRET)", "setting": "[4]", "value": "35 to 60", "unit": "%"},
      {"measurement": "decrease of Gi dissociation efficacy against wild type (BRET)", "setting": "[5]", "value": 40, "unit": "%"}
    ]}
  ]
}
